For test [1], the target named is T1, 6.3HIP 12D>R (mutant of B13-19/ProSAAS 219-225) peptide on I-Ag7 (mouse).
T1 peptide: EALYLVCSVDQRLG
Briefly: cytokine release.

Test [2] deals with T2, 6.3HIP 10D>R (mutant of B13-19/ProSAAS 219-225) peptide on I-Ag7 (mouse).
T2 peptide: EALYLVCSVRQDLG
Briefly: cytokine release.

In test [3] the target is T3, 6.3HIP -1-14 (6.3HIP with a valine added at the N-terminus); RESTORED: the article prints …, which lacks the … (mouse).
T3 peptide: VEALYLVCSVDQDLG
The experiment in a line: cytokine release.

Test [4] addresses T4, hybrid insulin peptide 6.3HIP: insulin B-chain B13-19 joined to ProSAAS 219-225 peptide on I-Ag7 (mouse).
T4 peptide: EALYLVCSVDQDLG
The experiment in a line: cytokine release.

Test [5] deals with T5, 6.3HIP 2-14 (N-terminal truncation of the 6.3HIP) peptide on I-Ag7 (mouse).
T5 peptide: ALYLVCSVDQDLG
Briefly: cytokine release.

For test [6], the target named is T6, 6.3HIP 1-11: insulin B-chain B13-19 joined to ProSAAS 219-222 peptide on I-Ag7 (mouse).
T6 peptide: EALYLVCSVDQ
Briefly: multimer staining.

B1: PD12-4.4 (TCR)
alpha TRAV5D-4 TRAJ53 CDR3: CAASASGGSNYKLTF
beta TRBV5 CDR3: CASSQDTNTGQLYF
Turning to B1, the binding result in test [1] is “recognises”; in test [2], “no recognition”; in test [3] it was “recognises”; in test [4], “recognises”; in test [5], “no recognition”; in test [6], “recognises”.

The values above are taken from publication PMC9399855 (2022).
